Test results published in patent publication US20230212222A1 (ANYGEN CO., LTD., priority 2020, published 2023).
Square brackets hold non-standard residues; d marks the D form. Ends that are not written are not given here. Peptide text beside a SMILES is read from it. * marks the point of attachment. 1,3‑difluorobenzhydryl = His with a 1-((2,4-difluorophenyl)(phenyl)methyl) group on the imidazole (N1); His(Trt) = N[C@@H](Cc1cn(C(c2ccccc2)(c2ccccc2)c2ccccc2)cn1)C(=O)O; dHis(Trt) = N[C@H](Cc1cn(C(c2ccccc2)(c2ccccc2)c2ccccc2)cn1)C(=O)O; Biotin = O=C1N[C@H]2[C@H](CS[C@H]2CCCCC(=O)*)N1; His(τ-Bzl) = N[C@@H](Cc1cn(Cc2ccccc2)cn1)C(=O)O; 4‑chlorobenzhydryl = Clc1ccc(C(c2ccccc2)*)cc1; Bip = N[C@@H](Cc1ccc(-c2ccccc2)cc1)C(=O)O; dPhe(4-Br) = N[C@H](Cc1ccc(Br)cc1)C(=O)O; dPhe(4-Cl) = N[C@H](Cc1ccc(Cl)cc1)C(=O)O; dPhe(4-Me) = Cc1ccc(C[C@@H](N)C(=O)O)cc1; Trt = c1ccc(C(c2ccccc2)(c2ccccc2)*)cc1; dPhe(4-F) = N[C@H](Cc1ccc(F)cc1)C(=O)O; Dmt = Cc1cc(O)cc(C)c1C[C@H](N)C(=O)O; Benzhydryl = c1ccc(C(c2ccccc2)*)cc1; Palmitoyl = CCCCCCCCCCCCCCCC(=O)*; Myristoyl = CCCCCCCCCCCCCC(=O)*; Lauroyl = CCCCCCCCCCCC(=O)*; Decanoyl = CCCCCCCCCC(=O)*; Octanoyl = CCCCCCCC(=O)*; SO3H = O=S(=O)(O)*; Bn = c1ccc(C*)cc1

B1: HKFY-47 (peptide)
peptide: H(Trt)K(Octanoyl)YF
B2: HKFY-25 (peptide)
peptide: H(Trt)K(Lauroyl)FY
B3: HKFY-49 (peptide)
peptide: His(Trt)-Lys(Octanoyl)-Phe
B4: HKFY-32 (peptide)
peptide: H(1,3‑difluorobenzhydryl)K(Octanoyl)[dPhe(4-Me)]Y
B5: HKFY-4 (peptide)
peptide: [dH](Trt)K(Octanoyl)FY
B6: HKFY-41 (peptide)
peptide: H(Trt)K(Octanoyl)FYQNGARF
B7: HKFY-21 (peptide)
peptide: H(4‑chlorobenzhydryl)K(Octanoyl)FY
modifications: not fully specified
B8: HKFY-31 (peptide)
peptide: [dH](Trt)K(Octanoyl)[dPhe(4-Me)]Y
B9: HKFY-3 (peptide)
peptide: H(Bn)K(Octanoyl)FY
B10: HKFY-35 (peptide)
peptide: H(Benzhydryl)K(Octanoyl)[dPhe(4-Me)]Y(SO3H)
B11: HKFY-28 (peptide)
peptide: H(Trt)K(Octanoyl)[dPhe(4-F)]Y
B12: HKFY-27 (peptide)
peptide: H(Trt)K(Palmitoyl)FY
B13: HKFY-30 (peptide)
peptide: H(Trt)K(Octanoyl)[dPhe(4-Me)]Y
B14: HKFY-24 (peptide)
peptide: H(Trt)K(Decanoyl)FY
B15: HKFY-48 (peptide)
peptide: H(Trt)K(Octanoyl)YY
B16: HKFY-37 (peptide)
peptide: GSH(Trt)K(Octanoyl)FY
B17: HKFY-38 (peptide)
peptide: H(Trt)K(Octanoyl)FYSDQQARF
modifications: not fully specified; printed as His(trt)-Lys(caprylic)-Phe-Tyr-Ser-Asp-Gln-Gln-Ala-Arg-Phe
B18: HKFY-23 (peptide)
peptide: H(adamantan‑1‑yl)K(Octanoyl)FY
B19: HKFY-44 (peptide)
peptide: H(Trt)K(Octanoyl)FYW
B20: HKFY-26 (peptide)
peptide: H(Trt)K(Myristoyl)FY
B21: HKFY-39 (peptide)
peptide: H(Trt)K(Octanoyl)FYSQNGARF
modifications: not fully specified; printed as His(trt)-Lys(caprylic)-Phe-Tyr-Ser-Gln-Asn-Gly-Ala-Arg-Phe
B22: HKFY-33 (peptide)
peptide: H(Benzhydryl)K(Octanoyl)FY
B23: HKFY-42 (peptide)
peptide: H(Trt)K(Octanoyl)FYHQQARF
modifications: not fully specified; printed as His(trt)-Lys(caprylic)-Phe-Tyr-His-Gln-Gln-Ala-Arg-Phe
B24: HKFY-36 (peptide)
peptide: H(Benzhydryl)K(Octanoyl)[dPhe(4-Me)][Dmt]
B25: HKFY-45 (peptide)
peptide: Biotin-H(Trt)K(Octanoyl)[Bip]Y
B26: HKFY-22 (peptide)
peptide: H(4‑methylbenzhydryl)K(Octanoyl)FY
B27: HKFY-46 (peptide)
peptide: H(Trt)K(Octanoyl)FW
B28: HKFY-40 (peptide)
peptide: H(Trt)K(Octanoyl)FYSHQQARF
modifications: not fully specified; printed as His(trt)-Lys(caprylic)-Phe-Tyr-Ser-His-Gln-Gln-Ala-Arg-Phe
B29: HKFY-43 (peptide)
peptide: H(Trt)K(Octanoyl)FYQNQARF
modifications: not fully specified; printed as His(trt)-Lys(caprylic)-Phe-Tyr-Gln-Asn-Gln-Ala-Arg-Phe
B30: HKFY-29 (peptide)
peptide: H(Trt)K(Octanoyl)[dPhe(4-Br)]Y

Each molecule was assayed against T1, GPR39 (G protein-coupled receptor 39) (Homo sapiens (Human), UniProt O43194 1-453) (assay: cell-based or functional assay).
T1 sequence: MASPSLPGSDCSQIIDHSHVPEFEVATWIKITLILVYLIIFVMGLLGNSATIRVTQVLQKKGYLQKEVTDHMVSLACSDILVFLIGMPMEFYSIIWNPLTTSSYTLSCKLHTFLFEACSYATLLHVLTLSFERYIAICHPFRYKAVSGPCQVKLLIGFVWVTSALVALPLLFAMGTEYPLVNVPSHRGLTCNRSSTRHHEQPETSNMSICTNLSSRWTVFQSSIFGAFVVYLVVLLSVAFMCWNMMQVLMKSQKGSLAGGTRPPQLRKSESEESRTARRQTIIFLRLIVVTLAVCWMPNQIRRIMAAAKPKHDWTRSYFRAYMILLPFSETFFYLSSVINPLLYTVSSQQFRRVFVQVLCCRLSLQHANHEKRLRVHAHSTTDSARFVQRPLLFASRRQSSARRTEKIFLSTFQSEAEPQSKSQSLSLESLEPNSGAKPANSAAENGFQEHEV
For B1, the “EC50 (luciferase reporter)” value was 300 nM and the “ECmax (-fold induction over basal)” value was 13 -fold induction over basal.
For B2, the “EC50 (luciferase reporter)” value was 630 nM and the “ECmax (-fold induction over basal)” value was 7.72 -fold induction over basal.
With B3 the “EC50 (luciferase reporter)” value was 320 nM and the “ECmax (-fold induction over basal)” value was 18.3 -fold induction over basal.
B4 was tested, and the “EC50 (luciferase reporter)” value was 2 nM and the “ECmax (-fold induction over basal)” value was 21.5 -fold induction over basal.
B5 was tested, and the “EC50 (luciferase reporter)” value was 130 nM and the “ECmax (-fold induction over basal)” value was 16.8 -fold induction over basal.
In the case of B6, the “EC50 (luciferase reporter)” value is reported as 9550 nM and the “ECmax (-fold induction over basal)” value is reported as 12.2 -fold induction over basal.
For B7, the “EC50 (luciferase reporter)” value was 136000 nM and the “ECmax (-fold induction over basal)” value was 18.3 -fold induction over basal.
With B8 the “EC50 (luciferase reporter)” value was 20 nM and the “ECmax (-fold induction over basal)” value was 20.9 -fold induction over basal.
With B9 the “EC50 (luciferase reporter)” value was 4130 nM and the “ECmax (-fold induction over basal)” value was 9.2 -fold induction over basal.
B10 was tested, and the “EC50 (luciferase reporter)” value was 280 nM and the “ECmax (-fold induction over basal)” value was 18.9 -fold induction over basal.
With B11 the “EC50 (luciferase reporter)” value was 74 nM and the “ECmax (-fold induction over basal)” value was 22.9 -fold induction over basal.
In the case of B12, the “EC50 (luciferase reporter)” value is reported as 560 nM and the “ECmax (-fold induction over basal)” value is reported as 20.4 -fold induction over basal.
With B13 the “EC50 (luciferase reporter)” value was 8 nM and the “ECmax (-fold induction over basal)” value was 23.9 -fold induction over basal.
B14 was tested, and the “EC50 (luciferase reporter)” value was 240 nM and the “ECmax (-fold induction over basal)” value was 7.03 -fold induction over basal.
For B15, the “EC50 (luciferase reporter)” value was 330 nM and the “ECmax (-fold induction over basal)” value was 14.4 -fold induction over basal.
B16 was tested, and the “EC50 (luciferase reporter)” value was 1840 nM and the “ECmax (-fold induction over basal)” value was 16 -fold induction over basal.
In the case of B17, the “EC50 (luciferase reporter)” value is reported as 3500 nM and the “ECmax (-fold induction over basal)” value is reported as 16.5 -fold induction over basal.
In the case of B18, the “EC50 (luciferase reporter)” value is reported as 2600 nM and the “ECmax (-fold induction over basal)” value is reported as 15 -fold induction over basal.
B19 was tested, and the “EC50 (luciferase reporter)” value was 370 nM and the “ECmax (-fold induction over basal)” value was 20 -fold induction over basal.
In the case of B20, the “EC50 (luciferase reporter)” value is reported as 280 nM and the “ECmax (-fold induction over basal)” value is reported as 19.8 -fold induction over basal.
In the case of B21, the “ECmax (-fold induction over basal)” value is reported as 12.1 -fold induction over basal.
In the case of B22, the “EC50 (luciferase reporter)” value is reported as 150 nM and the “ECmax (-fold induction over basal)” value is reported as 20 -fold induction over basal.
B23 was tested, and the “EC50 (luciferase reporter)” value was 1580 nM and the “ECmax (-fold induction over basal)” value was 11.8 -fold induction over basal.
B24 was tested, and the “EC50 (luciferase reporter)” value was 150 nM and the “ECmax (-fold induction over basal)” value was 9.9 -fold induction over basal.
With B25 the “EC50 (luciferase reporter)” value was 140 nM and the “ECmax (-fold induction over basal)” value was 21 -fold induction over basal.
For B26, the “EC50 (luciferase reporter)” value was 59800 nM and the “ECmax (-fold induction over basal)” value was 21.3 -fold induction over basal.
For B27, the “EC50 (luciferase reporter)” value was 260 nM and the “ECmax (-fold induction over basal)” value was 20 -fold induction over basal.
In the case of B28, the “EC50 (luciferase reporter)” value is reported as 1300 nM and the “ECmax (-fold induction over basal)” value is reported as 13.4 -fold induction over basal.
B29 was tested, and the “EC50 (luciferase reporter)” value was 1210 nM and the “ECmax (-fold induction over basal)” value was 12.1 -fold induction over basal.
In the case of B30, the “EC50 (luciferase reporter)” value is reported as 310 nM and the “ECmax (-fold induction over basal)” value is reported as 26.8 -fold induction over basal.

Each molecule was assayed against T2, GPR39 (Homo sapiens, UniProt O43194) (assay: not given).
T2 sequence (O43194 1-453): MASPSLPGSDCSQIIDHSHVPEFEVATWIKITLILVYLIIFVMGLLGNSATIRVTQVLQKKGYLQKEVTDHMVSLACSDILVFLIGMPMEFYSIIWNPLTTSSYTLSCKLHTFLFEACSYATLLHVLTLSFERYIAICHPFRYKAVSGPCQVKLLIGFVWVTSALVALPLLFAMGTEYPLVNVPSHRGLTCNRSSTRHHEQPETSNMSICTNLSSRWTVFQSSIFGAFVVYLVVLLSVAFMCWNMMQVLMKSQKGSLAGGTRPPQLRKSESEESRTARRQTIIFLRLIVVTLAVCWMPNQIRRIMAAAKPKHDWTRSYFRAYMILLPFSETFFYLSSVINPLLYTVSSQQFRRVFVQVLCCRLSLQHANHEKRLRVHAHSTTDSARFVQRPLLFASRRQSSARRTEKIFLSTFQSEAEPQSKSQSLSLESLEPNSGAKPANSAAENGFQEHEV
With `CCCCCCCC(=O)NCCCC[C@H](NC(=O)[C@@H](N)Cc1cn(Cc2ccccc2)cn1)C(=O)N[C@@H](Cc1ccccc1)C(=O)N[C@@H](Cc1ccc(O)cc1)C(=O)O` [HKFY-3, N2-(Nt-benzyl-L-histidyl)-N6-octanoyl-L-lysyl-L-phenylalanyl-L-tyrosine] (H-[His(τ-Bzl)]K(Octanoyl)FY-OH) the “ECmax (-fold induction over basal)” value was 9.2 ± 2.58 -fold induction over basal.
`CCCCCCCC(=O)NCCCC[C@H](NC(=O)[C@H](N)Cc1cn(C(c2ccccc2)(c2ccccc2)c2ccccc2)cn1)C(=O)N[C@@H](Cc1ccccc1)C(=O)N[C@@H](Cc1ccc(O)cc1)C(=O)O` [HKFY-4, N6-octanoyl-N2-(Nt-trityl-D-histidyl)-L-lysyl-L-phenylalanyl-L-tyrosine] (H-[dHis(Trt)]K(Octanoyl)FY-OH) was tested, and the “ECmax (-fold induction over basal)” value was 16.8 ± 1.87 -fold induction over basal.
For `CCCCCCCC(=O)NCCCC[C@H](NC(=O)[C@@H](N)Cc1cn(CCc2ccccc2)cn1)C(=O)N[C@@H](Cc1ccccc1)C(=O)N[C@@H](Cc1ccc(O)cc1)C(=O)O` [HKFY-9, N6-octanoyl-N2-(Nt-phenethyl-L-histidyl)-L-lysyl-L-phenylalanyl-L-tyrosine], the “ECmax (-fold induction over basal)” value was 21 ± 2.52 -fold induction over basal.
In the case of `CCCCCCCC(=O)NCCCC[C@H](NC(=O)[C@@H](N)Cc1cn(Cc2cccc3ccccc23)cn1)C(=O)N[C@@H](Cc1ccccc1)C(=O)N[C@@H](Cc1ccc(O)cc1)C(=O)O` [HKFY-10, N2-(Nt-(naphthalen-1-ylmethyl)-L-histidyl)-N6-octanoyl-L-lysyl-L-phenylalanyl-L-tyrosine], the “ECmax (-fold induction over basal)” value is reported as 14 ± 2.12 -fold induction over basal.
For `CCCCCCCC(=O)NCCCC[C@H](NC(=O)[C@@H](N)Cc1cn(CCC2CCCCC2)cn1)C(=O)N[C@@H](Cc1ccccc1)C(=O)N[C@@H](Cc1ccc(O)cc1)C(=O)O` [HKFY-11, N2-(Nt-(2-cyclohexylethyl)-L-histidyl)-N6-octanoyl-L-lysyl-L-phenylalanyl-L-tyrosine], the “ECmax (-fold induction over basal)” value was 22 ± 2.2 -fold induction over basal.
`CCCCCCCC(=O)NCCCC[C@H](NC(=O)[C@@H](N)Cc1cn(C(c2ccccc2)(c2ccccc2)c2ccccc2)cn1)C(=O)N[C@H](Cc1ccc(Cl)cc1)C(=O)N[C@H](Cc1ccc(O)cc1)C(=O)O` [HKFY-15, ((R)-2-((S)-2-((S)-2-amino-3-(1-trityl-1H-imidazol-4-yl)propanamido)-6-octanamidohexanamido)-3-(4-chlorophenyl)propanoyl)-D-tyrosine] (H-[His(Trt)]K(Octanoyl)[dPhe(4-Cl)][dY]-OH) was tested, and the “ECmax (-fold induction over basal)” value was 24.7 ± 2.6 -fold induction over basal.
